Laboratory results published in patent publication US20090092631A1 (TRIPEP, published 2009).
Several values for one entry are separate records, joined by “and”; a condition that tells them apart may be missing. Equal values may be shown once. Ends that are not written are not given here. * marks the point of attachment. Galα1‑3Galβ1‑O(CH2)3NH2 = OC[C@H]1O[C@H](O[C@H]2[C@@H](O)[C@@H](CO)O[C@@H](OCCCN*)[C@@H]2O)[C@H](O)[C@@H](O)[C@H]1O

What was measured:
[1] = biological target: T1, gp120 of HIV-1 IIIB virus (HIV-1 IIIB, UniProt P04578 33-856); assay: cell-based or functional assay
[2] = biological target: T1, gp120 of HIV-1 IIIB virus; assay: cell-based or functional assay; remark: listed apart in the source
[3] = biological target: T2, LAI gp120 molecule (PerkinElmer, Denmark) (HIV-1 LAI, UniProt P03377 33-516); assay: ELISA on coated LAI gp120, detection with 1:10 or 1:20 human serum
T2 construct: domain: gp120; also called gp120 from LAI virus

Row | Binder | neutralization (inhibition of syncytia formation, U87 CD4+ CXCR4+ cells), peptide without serum [1] | percentage of neutralization of the virus (plaque assay, U87 CD4 cells, HIV-1 IIIB); glycosylated Sp. exchanger 0.1 ug/ml & 1:10 dilution human serum [2] | percentage of neutralization of the virus (plaque assay, U87 CD4 cells, HIV-1 IIIB); glycosylated Sp. exchanger 0.1 ug/ml & 1:20 dilution human serum [2] | percentage of neutralization of the virus (plaque assay, U87 CD4 cells, HIV-1 IIIB); glycosylated Sp. exchanger 0.1 ug/ml, no serum [2] | percentage of neutralization of the virus (plaque assay, U87 CD4 cells, HIV-1 IIIB); glycosylated Sp. exchanger 1 ug/ml & 1:10 dilution human serum [2] | percentage of neutralization of the virus (plaque assay, U87 CD4 cells, HIV-1 IIIB); glycosylated Sp. exchanger 1 ug/ml & 1:20 dilution human serum [2] | percentage of neutralization of the virus (plaque assay, U87 CD4 cells, HIV-1 IIIB); glycosylated Sp. exchanger 1 ug/ml, no serum [2] | percentage of neutralization of the virus (plaque assay, U87 CD4 cells, HIV-1 IIIB); glycosylated Sp. exchanger 10 ug/ml & 1:10 dilution human serum [2] | percentage of neutralization of the virus (plaque assay, U87 CD4 cells, HIV-1 IIIB); glycosylated Sp. exchanger 10 ug/ml & 1:20 dilution human serum [2] | percentage of neutralization of the virus (plaque assay, U87 CD4 cells, HIV-1 IIIB); glycosylated Sp. exchanger 10 ug/ml, no serum [2] | lowest glycopeptide concentration at which binding was detected [3] | percentage of neutralization of the virus (plaque assay, U87 CD4 cells, HIV-1 IIIB); CD4 peptide alone 0.1 ug/ml [2] | percentage of neutralization of the virus (plaque assay, U87 CD4 cells, HIV-1 IIIB); CD4 peptide alone 1 ug/ml [2] | percentage of neutralization of the virus (plaque assay, U87 CD4 cells, HIV-1 IIIB); CD4 peptide alone 10 ug/ml [2] | decrease in the infectivity (RT activity day 11, H9 cells, HIV IIIB) at 0.01 µg/ml glycopeptide (approximately 5 nM) with 5 or 10% human serum [1] | neutralization (RT activity day 11, H9 cells, HIV IIIB) at 1 µg/ml glycopeptide with 5 or 10% human serum [1]
1 | DKLNDRADSRRSLWDQ (not fully specified (residue 1), also called GP6; glycopeptide 6) [Gal-CD4-105] | < 40% | 0.76 fraction (0.3 equals 30%) | 0.71 fraction (0.3 equals 30%) | < 0.3 fraction (0.3 equals 30%) | 0.75 fraction (0.3 equals 30%) | 0.75 fraction (0.3 equals 30%) | < 0.3 fraction (0.3 equals 30%) | 0.78 fraction (0.3 equals 30%) | 0.74 fraction (0.3 equals 30%) | < 0.3 fraction (0.3 equals 30%) | 10 ng/ml and ~5 nM |  |  |  |  | 
2 | NSNQIKILGNQGSFL [CD4 peptide alone, Seq. Id. No. 5 (non-glycosylated)] | < 40% |  |  |  |  |  |  |  |  |  |  | < 0.3 fraction (0.3 equals 30%) | < 0.3 fraction (0.3 equals 30%) | < 0.3 fraction (0.3 equals 30%) |  | 
3 | D(Galα1‑3Galβ1‑O(CH2)3NH2)QFHWKNSNQIKILGN (also called GP1; glycopeptide 1) [Gal-CD4-100] | < 40% | 0.48 fraction (0.3 equals 30%) | 0.47 fraction (0.3 equals 30%) | < 0.3 fraction (0.3 equals 30%) | 0.48 fraction (0.3 equals 30%) | 0.47 fraction (0.3 equals 30%) | < 0.3 fraction (0.3 equals 30%) | 0.55 fraction (0.3 equals 30%) | 0.48 fraction (0.3 equals 30%) | < 0.3 fraction (0.3 equals 30%) | ~5 nM and 10 ng/ml |  |  |  |  | 
4 | DNSNQIKILGNQGSFL (not fully specified (residue 1), also called GP2; glycopeptide 2) [Gal-CD4-101] | < 40% | < 0.3 fraction (0.3 equals 30%) | < 0.3 fraction (0.3 equals 30%) | < 0.3 fraction (0.3 equals 30%) | 0.39 fraction (0.3 equals 30%) | 0.32 fraction (0.3 equals 30%) | < 0.3 fraction (0.3 equals 30%) | 0.49 fraction (0.3 equals 30%) | 0.429 fraction (0.3 equals 30%) | < 0.3 fraction (0.3 equals 30%) | ~5 nM and 10 ng/ml |  |  |  |  | 
5 | DTKGPSKLNDRADSRR (not fully specified (residue 1), also called glycopeptide 5) [Gal-CD4-104] | < 40% | 0.778 fraction (0.3 equals 30%) | 0.701 fraction (0.3 equals 30%) |  | 0.821 fraction (0.3 equals 30%) | 0.667 fraction (0.3 equals 30%) | 0.548 fraction (0.3 equals 30%) | 0.83 fraction (0.3 equals 30%) | 0.642 fraction (0.3 equals 30%) | 0.552 fraction (0.3 equals 30%) | 10 ng/ml and ~5 nM |  |  |  | > 50% | 90%
6 | QGSFLTKGPSKLNDR [CD4 peptide alone, Seq. Id. No. 7 (non-glycosylated)] | < 40% |  |  |  |  |  |  |  |  |  |  | < 0.3 fraction (0.3 equals 30%) | < 0.3 fraction (0.3 equals 30%) | < 0.3 fraction (0.3 equals 30%) |  | 
7 | KLNDRADSRRSLWDQ [non-glycosylated CD4 peptide, Seq. Id. No. 9] | < 40% |  |  |  |  |  |  |  |  |  |  |  |  |  |  | 
8 | QFHWKNSNQIKILGN [CD4 peptide alone, Seq. Id. No. 4 (non-glycosylated)] | < 40% |  |  |  |  |  |  |  |  |  |  | < 0.3 fraction (0.3 equals 30%) | < 0.3 fraction (0.3 equals 30%) | < 0.3 fraction (0.3 equals 30%) |  | 
9 | D(Galα1‑3Galβ1‑O(CH2)3NH2)QGSFLTKGPSKLNDR (also called GP4; glycopeptide 4) [Gal-CD4-103] | < 40% | 0.439 fraction (0.3 equals 30%) | < 0.3 fraction (0.3 equals 30%) | < 0.3 fraction (0.3 equals 30%) | 0.461 fraction (0.3 equals 30%) | < 0.3 fraction (0.3 equals 30%) | < 0.3 fraction (0.3 equals 30%) | 0.454 fraction (0.3 equals 30%) | < 0.3 fraction (0.3 equals 30%) | < 0.3 fraction (0.3 equals 30%) | 10 ng/ml and ~5 nM |  |  |  | > 50% | 90%
10 | TKGPSKLNDRADSRR [non-glycosylated CD4 peptide, Seq. Id. No. 8] | < 40% |  |  |  |  |  |  |  |  |  |  |  |  |  |  | 
11 | KILGNQGSFLTKGPS [CD4 peptide alone, Seq. Id. No. 6 (non-glycosylated)] | < 40% |  |  |  |  |  |  |  |  |  |  | < 0.3 fraction (0.3 equals 30%) | < 0.3 fraction (0.3 equals 30%) | < 0.3 fraction (0.3 equals 30%) |  | 
12 | DKILGNQGSFLTKGPS (not fully specified (residue 1), also called GP3; glycopeptide 3) [Gal-CD4-102] | < 40% | 0.5 fraction (0.3 equals 30%) | < 0.3 fraction (0.3 equals 30%) | < 0.3 fraction (0.3 equals 30%) | 0.42 fraction (0.3 equals 30%) | < 0.3 fraction (0.3 equals 30%) |  | 0.6 fraction (0.3 equals 30%) | < 0.3 fraction (0.3 equals 30%) |  | ~5 nM and 10 ng/ml |  |  |  | > 50% | 90%
